Patent publication US5882644A, “Monoclonal antibodies specific for the platelet derived growth factor β receptor and methods of use thereof” (Protein Design Labs, Inc., priority 1996, dated 1999)

Tests used:
[1] = target: T1, PDGF-R β expressed on transfectant cells (CHO PDGF-R β transfectants, CHO C4 line); Sp2/0 PDGF-R β … (human, UniProt P09619); assay: competition with 125I-labeled muM4TS.22 on Sp2/0 PDGF-R β transfectant cells
Description: Figure 5: FIG. 5 is a graph depicting competitive binding of muM4TS.22 (closed circles) and HuM4TS.22 (open circles). Increasing concentrations of cold competitor antibodies were incubated with the Sp2/0 transfectants expressing PDGF-R β in the presence of radiolabeled tracer muM4TS.22, and the ratio of bound/free radioactivity determined. The results shown are mean values of triplicate samples.
(§1) To assess the ability of HuM4TS.22 to compete with muM4TS.22 for receptor binding, increasing concentrations of the two antibodies were respectively incubated on ice for one hour with Sp2/0 PDGF-R β transfectant cells and a fixed amount of tracer ^125I-labeled muAb. The sample tubes were processed as in the blocking experiment just described. MuM4TS.22 and HuM4TS.22 competed with equal efficiencies (FIG. 5).

[2] = target: T1, PDGF-R β expressed on transfectant …; assay: competition with 125I-labeled M4TS.11 on Sp2/0 PDGF-R β transfectant cells
Description: Figure 11: FIG. 11 is a graph depicting competitive binding of muM4TS.11 (closed squares) and HuM4TS.11 (open squares) and HuM4TS.11(gamma 1) (open diamonds). Increasing concentrations of cold competitor antibodies were incubated with the Sp2/0 transfectants expressing PDGF-R β in the presence of radiolabeled tracer muM4TS.11, and the ratio of bound/free radioactivity determined. The results shown are mean values of triplicate samples.
(§2) To assess the ability of HuM4TS.11 to compete with the muAb for receptor binding, increasing concentrations of the two antibodies were respectively incubated on ice for one hour with Sp2/0 PDGF-R β transfectant cells and a fixed amount of tracer ^125I-labeled M4TS.11. The sample tubes were processed as in the blocking experiment described. HuM4TS.11 competed less well than muM4TS.11 (FIG. 11).

[3] = system: PDGF-R β; assay: Competition with 125I-labeled murine antibody tracer on Sp2/0 PDGF-R β transfectant cells; type: binding, human; settings: Sp2/0 PDGF-R β transfectants
Description: as §1, with “^125 I-labeled” for “^125I-labeled”, “described.” for “described. MuM4TS.22 and HuM4TS.22 competed with equal efficiencies (FIG. 5).”
as §2, with “^125 I-labeled” for “^125I-labeled”, “[…] The binding affinities calculated from the data were: Ka =5×10^8 M^-1 for the muAb and 3×10^7 M^-1 for the HuAb.” for “HuM4TS.11 competed less well than muM4TS.11 (FIG. 11).”

[4] = system: CHO transfectant cell line expressing PDGF-R β (CHO C4); assay: Inhibition of PDGF BB-induced proliferation (3H-thymidine) of CHO C4 cells; type: cell-based, Chinese hamster
Description: To determine the ability of muM4TS.11 and muM4TS.22 to block PDGF-mediated proliferation, a CHO transfectant cell line expressing PDGF-R β (CHO C4) was generated, as described above. Proliferation of this line, as measured by incorporation of ^3 H-thymidine by DNA synthesis, is stimulated several-fold by PDGF BB. The CHO PDGF-R β transfectants were plated in a 96-well tissue culture plate at about 50,000 cells/well in Ham's F-12+10% FCS and incubated for 1-2 days. The medium was removed, and the cells were washed once with serum-free medium (Ham's F-12+1 mg/ml BSA) and incubated in this media for 1-2 days to put them in a quiescent state. The appropriate amount of antibody in serum-free medium was added, and after 1-3 hours, 50 ng/ml PDGF BB was added. After overnight incubation, 1 μCi ^3 H-thymidine was added, and after a final 4 hour incubation, the cells were harvested using a PHD cell harvester (Cambridge Technology) and analyzed with a scintillation counter.

Ka [1] [M⁻¹]	Molecule	competition with labeled murine antibody for receptor binding / binding affinity, in words [3]	inhibition of PDGF-mediated proliferation compared with another antibody [4]	other results
2.6e+08	muM4TS.22 (antibody, V domains shown) VH: QVQLKESGPGLVAPSQSLSITCTVSGFSLTNYAINWVRQPPGQGLEWLGIIWTGGGTSYNSALKSRLSISKDNSKSQVFLKMNSLQTDDTARYYCARTGTRGYFFDYWGQGTTLTVSS VL: DIQMNQSPSSLSASLGDTITITCHASQNINVWLSWYQRKPGNIPKLLIYKASNLHTGVPSRFSGSGSGTGFTLTISSLQPEDIATYYCQQGQSFPFTFGSGTKLEIK	–	–	–
4e+08	HuM4TS.22 (antibody, V domains shown) VH: QVQLQESGPGLVKPSETLSLTCTVSGFSLTNYAINWVRQPPGKGLEWLGIIWTGGGTSYNSALKSRLTISKDTSKNQVSLKLSSVTAADTAVYYCARTGTRGYFFDYWGQGTLVTVSS VL: DIQMTQSPSSLSASVGDRVTITCHASQNINVWLSWYQQKPGKAPKLLIYKASNLHTGVPSRFSGSGSGTGFTLTISSLQPEDIATYYCQQGQSFPFTFGGGTKVEIK	–	–	–
–	HuM4TS.11 (antibody, V domains shown) VH: QVQLVQSGAEVKKPGASVKVSCKASGYTFTNCWMHWVRQAPGQGLEWIGYINPTTGYSEYNQNFKDKATITADKSTSTAYMELSSLRSEDTAVYYCTSNYGHYDWFGNWGQGTLVT VL: DIQMTQSPSSLSASVGDRVTITCRASESVDSYGNSFMHWYQQKPGKAPKLLIYRASNLESGIPSRFSGSGSRTDFTLTISSLQPEDVATYYCQQSNEDPPTFGQGTKVEIK	–	–	Ka [2]: 3e+07 M⁻¹
–	HuM4TS.11(gamma1): same variable domains as HuM4TS.11 but a gamma1 rather than gamma4 heavy chain constant region (antibody, V domains shown) VL: DIQMTQSPSSLSASVGDRVTITCRASESVDSYGNSFMHWYQQKPGKAPKLLIYRASNLESGIPSRFSGSGSRTDFTLTISSLQPEDVATYYCQQSNEDPPTFGQGTKVEIK VH: QVQLVQSGAEVKKPGASVKVSCKASGYTFTNCWMHWVRQAPGQGLEWIGYINPTTGYSEYNQNFKDKATITADKSTSTAYMELSSLRSEDTAVYYCTSNYGHYDWFGNWGQGTLVT	higher binding affinity than HuM4TS.11	about equally well	binding affinity Ka ([3]; calculated from competitive binding data): 1.6e+08 M⁻¹
–	HuM4TS.11.2: HuM4TS.11 version in which a few additional human framework residues were changed to their murine counterparts (antibody, V domains shown) VL: DIVLTQSPSSLSASVGDRVTITCRASESVDSYGNSFMHWYQQKPGKAPKLLIYRASNLESGIPSRFSGGGSRTDFTLTISSLQPEDVATYYCQQSNEDPPTFGQGTKVEIK VH: QVQLVQSGAEVKKPGASVKVSCKASGYTFTNCWMHWVKQRPGQGLEWIGYINPTTGYSEYNQNFKDKATLTADKSTSTAYIELSSLRSEDTAVYYCTSNYGHYDWFGNWGQGTLVT	the same binding characteristics for PDGF-R β	the same level of inhibition of PDGF-stimulated cell proliferation as does HuM4TS.11	–
